Measurements from the supplement of paper PMC10567573.

B1: GNB5 (parent)
chain: YYPSGDAFASGSDDATCRLYDLRA

Variants of: B1
Experiment: protein stability index of a GFP-peptide fusion (GPS, HEK-293T) (PSI 1-6); higher = more stable
Details: c terminus: a fixed tail appended
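Also: lentivirally expressed fusions sorted by FACS into six bins by GFP to DsRed ratio, PSI derived from sequencing read proportions per bin multiplied by bin number.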

Variant	protein stability index
YYPSGDAYASGSDDATCRLYDLRA	2.61
YYPSGDAFASGSDDATCRLADLRA	2.73
YYPSGDAFASGSDDATCRLLDLRA	2.6
YYPSGDAFASGSDDATCRLFDLRA	2.4
YYPSGDAFASGSDDATCRLTDLRA	2.65
HYPSGDAFASGSDDATCRLYDLRA	3.95
GYPSGDAFASGSDDATCRLYDLRA	3.7
FYPSGDAFASGSDDATCRLYDLRA	2.65
MYPSGDAFASGSDDATCRLYDLRA	3.67
DYPSGDAFASGSDDATCRLYDLRA	4.09
VYPSGDAFASGSDDATCRLYDLRA	3.72
CYPSGDAFASGSDDATCRLYDLRA	3.3
YYPSGDAFASGSPDATCRLYDLRA	2.19
YYPSGDAFASGSSDATCRLYDLRA	2.28
YYPSGDAFASGSCDATCRLYDLRA	1.56
YYPSGDAFASGSIDATCRLYDLRA	2.27
YYPSGDAFASGSYDATCRLYDLRA	2.11
YYPSGDAFASGSQDATCRLYDLRA	2.2
YYPSGDAFASGSWDATCRLYDLRA	1.65
YYPSGDAFASGSDMATCRLYDLRA	2.21
YYPSGDAFASGSDKATCRLYDLRA	1.93
YYPSGDAFASGSDLATCRLYDLRA	1.92
YYPSGDAFASGSDQATCRLYDLRA	2.27
YYPSGDAFASGSDTATCRLYDLRA	2.02

Variant	protein stability index
YYPSGDAFASRSDDATCRLYDLRA	1.83
YYPSGDAFASASDDATCRLYDLRA	2.23
YYPSGDAFASFSDDATCRLYDLRA	1.99
YYPSGDAFASHSDDATCRLYDLRA	2.44
YYPSGDAFASSSDDATCRLYDLRA	2.08
YYPSGDAFASVSDDATCRLYDLRA	1.94
YYPSGDAFASTSDDATCRLYDLRA	2.28
YYPSGDAFASMSDDATCRLYDLRA	1.66
YYPSGDAFASGIDDATCRLYDLRA	2.24
YYPSGDAFAHGSDDATCRLYDLRA	2.56
YYPSGDAFAMGSDDATCRLYDLRA	2.16
YYPSGDAFAGGSDDATCRLYDLRA	2.36
YYPSGDAFARGSDDATCRLYDLRA	2.1
YYPSGDAFAAGSDDATCRLYDLRA	2.25
YYPSGDAFAPGSDDATCRLYDLRA	2.46
YYRSGDAFASGSDDATCRLYDLRA	2.88
YYMSGDAFASGSDDATCRLYDLRA	2.99
YYISGDAFASGSDDATCRLYDLRA	2
YYVSGDAFASGSDDATCRLYDLRA	2.31
YYSSGDAFASGSDDATCRLYDLRA	3.27
YYPGGDAFASGSDDATCRLYDLRA	3.14
YYPEGDAFASGSDDATCRLYDLRA	3.72
YYPKGDAFASGSDDATCRLYDLRA	3.33
YYPHGDAFASGSDDATCRLYDLRA	2.87

Variant	protein stability index
YYPPGDAFASGSDDATCRLYDLRA	3.78
YYPSGDAFASGSDDAICRLYDLRA	2.18
YYPSGDAFASGSDDARCRLYDLRA	2.94
YYPSGDAFASGSDDAQCRLYDLRA	2.88
YYPSGDAFASGSDDAPCRLYDLRA	2.54
YYPSGDAFASGSDDAYCRLYDLRA	2.52
YYPSGDAFASGSDDANCRLYDLRA	2.69
YYPSGDAFASGSDDAWCRLYDLRA	1.91
YYPSGDAFASGSDDAGCRLYDLRA	2.46
YYPSGDAFASGSDDATCHLYDLRA	3.23
YYPSGDAFASGSDDATCGLYDLRA	2.85
YYPSGDAFASGSDDATCMLYDLRA	2.2
YYPSGDAFASGSDDATCWLYDLRA	2.15
YYPSGDAFASGSDDATCFLYDLRA	2.84
YYPSGDAFASGSDDATCELYDLRA	3.25
YYPSGDAFASGSDDATCSLYDLRA	2.88
YYPSGAAFASGSDDATCRLYDLRA	2.31
YYPSGIAFASGSDDATCRLYDLRA	1.89
YYPSGCAFASGSDDATCRLYDLRA	2.03
YYPSGVAFASGSDDATCRLYDLRA	2.35
YYPSGFAFASGSDDATCRLYDLRA	2.14
YYPSGTAFASGSDDATCRLYDLRA	2.13
YYPSGGAFASGSDDATCRLYDLRA	2.72
YYPSGQAFASGSDDATCRLYDLRA	1.83

Variant	protein stability index
YYPSGDAFASGSDDATQRLYDLRA	2.9
YYPSGDAFASGSDDATHRLYDLRA	2.56
YYPSGDAFASGSDDATTRLYDLRA	2.61
YYPSGDAFASGSDDATLRLYDLRA	2.87
YYPSGDAFASGSDDATARLYDLRA	2.42
YYPSGDAFASGSDDATWRLYDLRA	2.48
YYPSGDAFASGSDDATVRLYDLRA	2.85
YYPSGDAFASGSDDATERLYDLRA	3.36
YYPSGDAFASGSDDATGRLYDLRA	2.85
YYPSGDAFESGSDDATCRLYDLRA	3.17
YYPSGDAFPSGSDDATCRLYDLRA	3.06
YYPSGDAFNSGSDDATCRLYDLRA	2.65
YYPSGDAFKSGSDDATCRLYDLRA	2.22
YYPSGDAFYSGSDDATCRLYDLRA	2.04
YYPSGDAFASGSDDATCRLYDNRA	2.84
YYPSGDAFASGSDDATCRLYDCRA	3.17
YYPSGDAFASGSDDATCRLYDDRA	3.03
YYPSGDAFASGSDDATCRLYDQRA	2.55
YYPSGDAFASGSDDATCRLYDIRA	2.78
YYPSGDAFASGSDDATCRLYDKRA	3.07
YYPSGDAFASGSDDATCRLYDHRA	3.09
YYPSGDAFASGSDDATCRLYDTRA	2.73
